The nanobody polyreactivity screen of Harvey et al. (2022)

Experiment: yeast display, Sf9 membrane polyspecificity reagent, FACS + sequencing; frameworks hold sequencing errors
Method in brief: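 Genes from sorted yeast were amplified by colony PCR, read by MiSeq 2 × 250 sequencing and filtered on CDR length. These cells carried a synthetic nanobody library in Saccharomyces cerevisiae BJ5465 and were sorted by FACS into low and high (top ~1%) gates on anti-HA and streptavidin fluorescence. Polyreactivity is labelled according to the gate of origin.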

QVQLVESGGGLVQAGGSLRLSCAASGLTFYLYVMGWYRQAPWKERELVAAISRRGGSTYYADSVKGRFTISRDNAKNTVYLQMNSLKPEDTAVYYCAARVYGTYRGIQYGYWGQGTQVTVSS
polyreactivity (PSR sort gate): high polyreactivity

QVQLVESGGGVVQAGGSLRLSCAASGLIFAYAMGWYSPAPGKERELVAVISWSGGSTYYADSVKGRFTISRDNAKNTVYLQMNSLKPEDTAVYYCAADYFGNWQLAGGYWGQGTQVTVSS
polyreactivity (PSR sort gate): low polyreactivity

QVQLVESGGGLVQAGGSLRLSCAASGSILWYYAMGWYRQAPGKERELVATITSGGSTYYADSVKGRFTMSRDNAKNTVYLQMNILKTEDTAVYYCNADLAVDEYVYWGQGTQVTVSS
polyreactivity (PSR sort gate): low polyreactivity

QVQLVESGGGLVQAGGSLRLSCPASGRIFLGNLMGWYRQAPGKERELVAAISWSGGSTYADSVKGRFTISRDNAKNTVYFQMNSLKPEDTAVYYCAKDEGTFYNSYDYWGQGTQVTVSS
polyreactivity (PSR sort gate): low polyreactivity

QVQLVESGGGLVQAGGSLRVSCAASGGTFCNYAMGWNRQAPGKERELVAAITSGGGSTYYADSVKGRFTISRDIAKNTVYLQMNSLKPEDTAVYYCAARRSSYGYWGQGTQVTVSS
polyreactivity (PSR sort gate): high polyreactivity

QVQLVESGGGLVQAGGSLRLSCAASGSIFGNTMGWYRQAPGKEWEFVAAISSTGGNTYYADSVKGRFTISRDNAKITVYLQMNSLKPEDTAVYYCNRRYRYRFGYWGQGTQVTVSS
polyreactivity (PSR sort gate): high polyreactivity

QVQLVESGGGLVQAGGSLRLSCAASGSTIYPNAMGWYRQAPGQERELVAVISSGGSTYYADSVKGRFTISRDNAKNTVYLQMNSLKPEDTAVYYCAADRGTVSYLYSPRAVDYWGQGTQVTVSS
polyreactivity (PSR sort gate): low polyreactivity

QVQLVESGGGLVQAGGSLRLSCAASGRTFVGYPIGWYRQAPGKESELVATITNDAITNADSVKGRFTISRDNAKNTVYLQMNSLKPEDTAVYYCNTRYSYGTAYEQYRYKALYDYWGQGTQVTVSS
polyreactivity (PSR sort gate): low polyreactivity

QVQLVESGGGLVQAGGSLRLSCAASGLTFSTYAMGWYRQAPGKERELVATITYSGSSTYADSVKGRFTIARDNAKNTVYLQMNSLKPEDTAVYFCAAVTYHGNPSEYFPDTVGFYYWGQGTQVTVSS
polyreactivity (PSR sort gate): low polyreactivity

QVQLVETGGGLVQAGGSLRLSCAASGFTFSFYTMGWYRQAPGKERELVAAISRRGGSTYYADSVKGRFTISRDNAKNTVYLQMNSLKPEDTAVYYCPTDHIPSVGDDYWGQGTQVTVSS
polyreactivity (PSR sort gate): high polyreactivity

QGQLGESGGGLVQAGGSLRLSCAASGRIFNCYGMGWYRQAPGKERELVATISKSSDITYYADSVKGRFTISRDIAKNNVYLQMNSLRPEDTAVYYCAAKVRQWRQGSYSSQYDYWGQGTQVTVSS
polyreactivity (PSR sort gate): high polyreactivity

QDQLVESAGGLVQAGGSLRLSCAASGRTFYFYTMGWYRQAPGKESELVATAITSGGSTNYADSVKGRFTISRDNAKNTVYLQMNSLKPEDTAVYYCAAVPTEFGNRLEYDYWGQGTQVTVSS
polyreactivity (PSR sort gate): low polyreactivity

QVQLEESGGGLVQAGGSLRLSCAASGSICYYYARGWYRQAPGKERELVASITSGGRTYYADSVKGRFTISRDNAKNTVYLQMNSLKPEDTAVYYCAAQRIWLGDYWGQGTQVTVSS
polyreactivity (PSR sort gate): high polyreactivity

QVQLVESGGGLVQAGGSLRLSCAASGFIFGRYAMGWYRQAPGKERELVAAISRSGGSTHYADSVKGRFTISRDNAKNTVYLQMNSLKQVDTAVYYCNTYLTIWGYFYGYDYWGQGTQVTVSS
polyreactivity (PSR sort gate): high polyreactivity

QVQLVESGGGLVQAGGSLRLSCAASGSTFQGYSMGWYRPAPGKERELVAAISGSGGNTYYADSVKGRFTISRDNAKNTVYLQMNSLKPEDTAVYYCAAGHVRTDWRYGYWGQGTQVTVSS
polyreactivity (PSR sort gate): low polyreactivity

QVQLVESGGGIVQAGGSLRLSCAASGSTFGYYAMGWYRQAPGKERELVAAISWRGGSTYYADSVKGRFTISRDNAKNTVYLQMNSLKPEDTAVYYCAAQRGGPFPRVVDLYDYWGQGTQVTVSS
polyreactivity (PSR sort gate): low polyreactivity

QVQLVESGGGLVQAGGSLRLSCAASGFIFWRNAMGWDRQAPGKDRELVATISRSGGSTYYADSVKGRFTISRDTAKNTVYLQMNSLKPEDTAVYYCATVPWYYWGTHRTLYDYWGQGTQVTVSS
polyreactivity (PSR sort gate): high polyreactivity

QVQLVESGGGLVQAGGSLRLSCAASGSIFVRNTMGWYRQAPGKERELVATISSGGRTYYADSVKGRFTISRDNAKNTVYLQMNSLKPEETAVYYCAAGYSYAQYSYPFLSFAFGYWGQGTQVTVSS
polyreactivity (PSR sort gate): high polyreactivity

QVQRVESGGGLVQAGGSLRLSCAASGSIIQPYARGWYRQSPGKERELVAAIRSSTGSTYYADSVKGRFTISRDIAKNTVYLQQNSLKPEDSAVYYCARRRWSYVRGYSSGMYYWGQGTQVTVSS
polyreactivity (PSR sort gate): high polyreactivity

QGQLVESGGGLVQAGGSLRLTCAASGSIFYVYDIGWYRPAPGKERELVANIRDGGITYADSVKGRFTISRDNAKYTVYLQMNSLKPEDTAVYYCARDDTSPGYGDQSSNAAYYYWGQGTQVTVSS
polyreactivity (PSR sort gate): low polyreactivity

QVQLVESGGGLVQAGGSLRLSCAASGSIWRNAMGWYRQAPGKERELVAGITRRSGSTYYADSVKGRFTISRDNAKYTVYLQMNSLKPEDTAVYYCARVVVGGDDYWGQGTQVTVSS
polyreactivity (PSR sort gate): high polyreactivity

QVQLVESGGGFVQAGGSLRLSCAATGSIFPQNAMGWYRQAPGKERELVASISSGGRTNYADSVKGRFTISRDYAKNTVYLQMNSLKPEDSAVYFCAKTRIRYKPLHFYYWGQGTQVTVSS
polyreactivity (PSR sort gate): low polyreactivity

QVQLVESVGGLVQAGGSLRLSCAASGSTFGYNAMGWYRHAPGKEMELVAAITRSSSRTYYADYVKGRFTISRDNAKNTVYLQMNSLKPEDTAVYYCAKVRYVVGSIFNYSYNYWGQGTQVTVSS
polyreactivity (PSR sort gate): high polyreactivity

QVQLVESGGGLVQAGGSHRLSCAASGRTFYAYAMGWYRQAPGKERELVAANRYSGGRTYYADSVKGRFTISRDNAKNTVYLQMNSLKPEDTGVYYCAREWSRGSYVDYDYWGQGTQVTVSS
polyreactivity (PSR sort gate): high polyreactivity

QVQLVESGGGLVQAGGSLRLSCAASGRTFLVNAMGWYRQAPGKEREYVAAINFSVGTTTYADSVKGRFTISRDNAKNTVYLQMNSLKPEDTAVYYCNTYGRYWYIREDYWGQGTQVTVSS
polyreactivity (PSR sort gate): high polyreactivity

QVQLVESGGGLVQAGGSLRLSCAASGLIFPYYTMGWYRQAPGKEGELVAVINRGGSTSYADSVKGRFTISRDNEKISVYLQMNSLKPEYTAVYYCARRTPYYTSYAFDSWGQGTQVTVSS
polyreactivity (PSR sort gate): high polyreactivity

QVQLVESGGGLVQAGGSLRLSCAASGSTFKVYAMGWYRQAPGKESELVATISKSGSTYADSVKGRFTISRDNAKNTVYLQMNSLKPEDTAVYYCARVKYSGVVYKYDYWGQGTQVTVSS
polyreactivity (PSR sort gate): high polyreactivity

QVHLVESGGGLVQAGGSLRLSCAASGRTFKHYAMGWYRQEPGKERELVAAITSGGSTYYADSVKGLFTISRDNAKNPVYLQMNSLKPEDTAVYYCNTESFFDTYRRYDSWGQGTQVTVSS
polyreactivity (PSR sort gate): low polyreactivity

QVQLVESGVGLVQAGGSLRLSCAASGRIFTPYAMGWYRQAPGKERELVAAITGSGGITYYADSVKGRFTISRDNSKNTVYLQMNSLKPEDTAVYYCNADTPVWDGHAYPGDYWGQGTQVTVSS
polyreactivity (PSR sort gate): low polyreactivity

QVQLVESGGGLVQAGGSLRLSCAASGITFTENLMGWYRQAPGKERELVAGISRSGGITYFADSVKGRFTISRDNAKNTVYLQMNSLKPEDTSVYYCAADFYASYSPYYYWGQGTQVTVSS
polyreactivity (PSR sort gate): high polyreactivity

QVQLVESGGGLVQAGGSLRLSCAASGITFFGYAMGWYRQAPGKERELVATISRSGGSTSYADSVKGRFTISRDNAKNTVYLQMNSLKPEDTAVYYCNNRTPYLRPIMDYWGQGTQVTVSS
polyreactivity (PSR sort gate): high polyreactivity

QVQLVESGGGLVQAGGSLRLSCAASGSTFWTNAMGWFRHAPGKVRELVATISKTTGRTNYADSEKGRFTISRDNAKNTVYLQMNSLKPEDTAVYYCAAEPYSWDTWVDYDYWGIGTQVTVSS
polyreactivity (PSR sort gate): low polyreactivity

QVQLVESGGGLVQAGGSLRLSCAASGRIFVDNAMGWYRQAPGKERELVAAITRGGSTYADSVKGRFTISRDNAKNTVYLQMNSLKPEDTAVYYCAADLWSVPFTVYTFGIFYYWGQGTQVTVSS
polyreactivity (PSR sort gate): low polyreactivity

QVQLEESGGGLVQAGGSLRLSCAASGYTFRGNARGWYRQAPGKERELVASISYSGGTTYADSVKGRFTISRDNAKNTVYLHRNSLKQEDTAVYYCNAAGFYYLYSHRQYEFWGQGTQLTVSS
polyreactivity (PSR sort gate): low polyreactivity

QVQLVESGGGLVQAGGSLRLSCAASGIIFPAYAMGWYRQEPGKDRELVAAISKRGGSTYYADSVKGRFTISRDNAKNTVYLQMNSLKPEDTAVYYCNVLLTQGATVGEYGYWGQGTQVTVSS
polyreactivity (PSR sort gate): high polyreactivity

QVQLVQSGGGLVQEGGSLRLSCAASGSTLSIYAMGWYRQAPGKERELVASITTSGSSTYYADSVKGRFTISRDNAKNTVYLQMNSLKPEDTAVYYCAKRKSYRSQPWGYDYWGQGTQVTVSS
polyreactivity (PSR sort gate): high polyreactivity

QVQLVESGGGLVQAGGSLRLSCAASGFIFRSYAMGWYRQAPGKERELVAAISRSGGSTYYADSVKGRFTISRDNAKNTVYLQMNSLKPEDTAVYYCNTARRDREVDYWGQGTQVTVSS
polyreactivity (PSR sort gate): high polyreactivity

QVQLVESGGGLVQAGGSLRLSCAASGYTFWDYAMGWYRQAPGKEREFVAGISFSDGGTYYADSVKGRFTITRDNAKNTVYLQMNSLKPEDTAVYYCAATYPYSWVYSGYYYWGQGTQVTVSS
polyreactivity (PSR sort gate): low polyreactivity

QVQLVESGGGFVQAGGSLRLSCAASGSTFYTYTLGWYRQAPGKERELVAAISSSGGDTYYADSVKGRFTISRDNAKNTVYLQMNSLKPEDTAVYYCAALGAFPSLEFDYWGQGTQVTVSS
polyreactivity (PSR sort gate): low polyreactivity

QVQLVESGGGLVQAGGSLRLSCAASGSIFRLNTMGWYRQAPGKERELVAAITRSGSTNYADSVKGRFTISRDNAMNTVYLQMNSLKPEDTAVYYCAARYPREAAYGFEYWGQGTQVTVSS
polyreactivity (PSR sort gate): high polyreactivity

QVQLVESGGGLVQAGGSLRLSCAASGLIFYGYVMGWYRQAPGKERELVAGISRNSGSTYYADSVKGRFTISRDNAKTTVYLQMNSLKPEDTAVYYCAKAYYRRYAAPGYDYWGQGTQVTVSS
polyreactivity (PSR sort gate): low polyreactivity

QVQLVESGGGLVQAGGSLRLSCAASGRTFYGNAMGWYRQAPGKERELVAAITSGGGSTRYADSVKGRFTISRDNANNTVYLQMNSLKPEHTAVYYCAAYRQGTAYDYWGQGTQVTVSS
polyreactivity (PSR sort gate): high polyreactivity

QVQLVESGGCLVQAGGSLRLSCAASGSIFGVNAMGGYRQPPGKDRELVASITGGDSTNYADSVKGRFTISRDNAKNTVYLQMNSLKPEDTAVYYCAKDHYYRYEEGDYWGLGTQVTVSS
polyreactivity (PSR sort gate): low polyreactivity
